Source: article PMC12067093 (2025)

Biological target: BRD4 BD2 (Homo sapiens, UniProt O60885)
Test: SPR

| Kd [nM] | Binder |
| --- | --- |
| 20 | TRIM25 PRYSPRY (protein, TRIM25 covalently pre-labelled with heterobifunctional compound HB2) KVLETFLAKSRPELLEYYIKVILDYNTAHNKVALSECYTVASVAEMPQNYRPHPQRFTYCSQVLGLHCYKKGIHYWEVELQKNNFCGVGICYGSMNRQGPESRLGRNSASWCVEWFNTKISAWHNNVEKTLPSTKATRVGVLLNCDHGFVIFFAVADKVHLMYKFRVDFTEALYPAFWVFSAGATLSICSPK |
| 22.5 | TRIM25 PRYSPRY (protein, TRIM25 covalently pre-labelled with heterobifunctional compound HB3) KVLETFLAKSRPELLEYYIKVILDYNTAHNKVALSECYTVASVAEMPQNYRPHPQRFTYCSQVLGLHCYKKGIHYWEVELQKNNFCGVGICYGSMNRQGPESRLGRNSASWCVEWFNTKISAWHNNVEKTLPSTKATRVGVLLNCDHGFVIFFAVADKVHLMYKFRVDFTEALYPAFWVFSAGATLSICSPK |
| 15 | TRIM25 PRYSPRY (protein, TRIM25 covalently pre-labelled with heterobifunctional compound HB1) KVLETFLAKSRPELLEYYIKVILDYNTAHNKVALSECYTVASVAEMPQNYRPHPQRFTYCSQVLGLHCYKKGIHYWEVELQKNNFCGVGICYGSMNRQGPESRLGRNSASWCVEWFNTKISAWHNNVEKTLPSTKATRVGVLLNCDHGFVIFFAVADKVHLMYKFRVDFTEALYPAFWVFSAGATLSICSPK |
